This data set concerns the target LhrD1536A (Escherichia coli MG1655, UniProt P30015 1-1538, D1536A). In words: EMSA; 5 mM EDTA; 12.5-200 nM protein, 12.5 nM DNA; similar to Lhr; 20 mM Tris pH 7.5, 10% glycerol, 100 ug/mL BSA, 25 mM DTT, 5 mM EDTA, 12.5 nM Cy5-DNA; 37 C 20 min then ice 10 min; 5% acrylamide TBE gel. To be noted: protein: recombinant; tags: His6; label: 5' Cy5; single strand.

Consider TCGGATCCTCTAGACAGCTCCATGATCACTGGCACTGGTAGAATTCGGC (ssDNA) [Cy5-ssDNA (EMSA)], for which the binding result is listed as “binds”.

The values are drawn from article PMC10953399, “Escherichia coli DNA repair helicase Lhr is also a uracil‐DNA glycosylase”.
